Earlier results in paper PMC7072864.
pKd: −log10 of the molar value.

Target: EAG1 CNBHD CNBHD (Mus musculus) (UniProt Q60603)

Q: With “EAG1 PAS domain PAS (from UniProt Q60603)” as the substance, how does the pKd read?
A: Its pKd is 4.89.
